Experimental findings from patent US20200255511A1 (TILLOTTS PHARMA, published 2020) are described below.

Substitutions are numbered along the chain they refer to. Numbers in names are those of the source.

The target in one assay is T1, CD32a (H) (UniProt P12318 36-218).
T1 construct: Captured by its His-tag
T1 sequence (looked up): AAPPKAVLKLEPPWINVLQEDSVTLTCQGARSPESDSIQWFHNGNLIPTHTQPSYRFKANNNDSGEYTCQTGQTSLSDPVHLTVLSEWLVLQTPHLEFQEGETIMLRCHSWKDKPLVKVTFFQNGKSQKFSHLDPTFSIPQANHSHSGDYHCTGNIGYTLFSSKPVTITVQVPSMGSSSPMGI
Put plainly: SPR (Biacore), His-tagged FcγR captured on anti-His chip, antibody as analyte, 25 °C.

For another assay, the target named is T2, CD32b (UniProt P31994 43-217).
T2 construct: Captured by its His-tag
T2 sequence (looked up): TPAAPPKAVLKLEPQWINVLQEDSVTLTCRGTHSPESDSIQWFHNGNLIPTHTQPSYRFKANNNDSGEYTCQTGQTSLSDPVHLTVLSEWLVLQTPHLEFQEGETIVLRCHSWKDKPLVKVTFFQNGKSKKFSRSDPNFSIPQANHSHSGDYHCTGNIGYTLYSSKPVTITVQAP
The description is as above.

The target in a further assay is T3, CD64 (UniProt P12314 16-288, limits assumed).
T3 construct: Captured on the chip by its His-tag; also called Fcγ receptor CD64
T3 sequence (P12314 16-288 limits assumed): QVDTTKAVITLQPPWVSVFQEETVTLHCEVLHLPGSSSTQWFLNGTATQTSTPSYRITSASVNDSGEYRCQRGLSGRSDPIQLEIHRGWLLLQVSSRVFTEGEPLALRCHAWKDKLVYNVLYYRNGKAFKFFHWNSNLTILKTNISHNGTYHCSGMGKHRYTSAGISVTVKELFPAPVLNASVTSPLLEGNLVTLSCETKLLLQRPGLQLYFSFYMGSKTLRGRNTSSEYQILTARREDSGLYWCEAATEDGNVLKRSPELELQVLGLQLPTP
The description is as above.

Assay [1] has as its target T4, monomeric His-tagged human FcRn (human, UniProt P55899 24-297; P61769 21-119, limits assumed).
T4 construct: also called hFcRn
Briefly: SPR (Biacore 3000) at pH 6.0, antibody amine-coupled, monomeric His-tagged hFcRn as analyte, 25 °C; pH 6.0. (Surface plasmon resonance follows binding to a sensor surface in real time, without labels.)
Experimental: (§1) SPR was performed using a Biacore 3000 instrument with CM5 sensor chips coupled with anti-TNFα IgG1 antibodies (˜500 resonance units (RU)) using amine-coupling chemistry as described by the manufacturer. The coupling was performed by injecting 2.0 ug/mL of each protein in 10 mM sodium acetate, pH 4.5, using the amine-coupling kit (GE Healthcare). […] All SPR experiments were conducted at 25° C. with a flow rate of 40 ul/min. Binding data were zero-adjusted, and reference cell value subtracted. The Langmuir 1:1 ligand binding model provided by the BIAevaluation software (version 4.1) was used to determine the binding kinetics.

For assay [2], the target named is T5, CD16a (V) (UniProt P08637 17-208).
T5 construct: Captured by its His-tag
T5 sequence (P08637 17-208 F176V limits assumed): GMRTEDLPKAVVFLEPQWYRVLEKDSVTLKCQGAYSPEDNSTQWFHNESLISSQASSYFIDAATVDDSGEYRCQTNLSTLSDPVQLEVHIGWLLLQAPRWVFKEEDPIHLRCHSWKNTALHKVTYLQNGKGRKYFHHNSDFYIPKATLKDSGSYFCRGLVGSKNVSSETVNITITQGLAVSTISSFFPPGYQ
Put plainly: SPR (Biacore), His-tagged FcγR captured on anti-His chip, antibody as analyte, 25 °C.
Experimental: (§2) Affinity to FcγRs was measured by Biacore. A CM5 chip was prepared using standard amine immobilisation Biacore procedures. Upon insertion of a CM5 chip the system was primed and then normalised with BIA-normalizing solution (Biacore Preventative Maintenance Kit 2). The chip was added to the system with PBS-T running buffer; prior to immobilisation the chip surface was primed with three injections of 50 mM NaOH. FcγRs were immobilised on the chip surface using a His-tag capture system. The anti-His tag chip was prepared according to the Biacore kit instructions, with ˜12000 RU's of the antibody deposited on all 4 flow cells. To remove non-covalently bound material from all the chip flow cells, three 30 second 10 mM glycine pH 1.5 washes were performed. The Fcγ receptors were diluted in PBS-T to a range of 0.5-2 μg/mL, with 2.5-5.0 μL injected onto the chip generating capture levels between 60 and 200 RU's. Antibodies were diluted into PBS-T prior to analysis. Single cycle kinetics were used to estimate the steady state affinity. For each single cycle analysis cycle a titration of 5 antibody concentrations were injected over the FcγR ligand and then the dissociation of the complex was measured. The surface was regenerated using the recommended solution, 10 mM glycine pH 1.5 for the anti-His capture surface. A double referencing method was employed in which data from the ligand bound capture surface (fc 2 and 4) were subtracted from the references surfaces where no ligand was captured (fc 1 and 3 respectively). Blank injections of buffer were run for every antibody titration cycle and then subtracted from analyte injection cycles, to correct for small changes in the ligand capture surface. All analysis was performed at 25° C. and the sample rack was incubated at 10° C. during experimental runs. Each experiment was run at least three times.
(§3) The mean and standard deviation affinity calculated from two or more independent experiments is shown.

For assay [3], the target named is T6, human TNFα (human, UniProt P01375 77-233).
T6 construct: also called recombinant TNFα
T6 sequence (P01375 77-233 limits assumed): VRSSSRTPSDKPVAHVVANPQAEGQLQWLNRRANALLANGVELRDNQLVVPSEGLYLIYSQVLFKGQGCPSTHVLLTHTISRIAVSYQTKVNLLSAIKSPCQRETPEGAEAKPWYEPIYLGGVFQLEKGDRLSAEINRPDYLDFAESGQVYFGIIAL
Briefly: SPR (Biacore), antibody captured on Protein A, TNFα as analyte, single cycle kinetics, 25 °C.
Experimental: Affinity to TNFα was measured by Biacore. A CM5 chip was prepared using standard amine immobilisation Biacore procedures. Upon insertion of a CM5 chip the system was primed and then normalised with BIA-normalising solution (Biacore Preventative Maintenance Kit 2). The chip was added to the system with PBS-T running buffer; prior to immobilisation the chip surface was primed with three injections of 50 mM NaOH. Protein A was immobilised on the chip surface. For this, the protein was diluted to 5 μg/mL into 10 mM acetate buffer at pH 4.5 and injected so to generate a bound response of ˜1000 RU's in all 4 flow cells. To remove non-covalently bound material from all the chip flow cells, three 15 second 50 mM NaOH washes were performed. On the Protein A chip, antibody was captured in flow cells 2 and 4, with flow cells 1 and 3 used for reference subtraction. The trial antibodies were diluted in PBS-T to 10 nM and 2.5-7.5 uL injected to obtain 120 RU of captured antibody. The analyte TNFα was prepared at 500 μg/mL in water as directed by the supplier and further diluted into the running buffer Phosphate Buffered Saline Tween-20 (PBS-T). Single cycle kinetics was used to estimate the steady state affinity. For each single cycle analysis cycle a titration of 5 analyte concentrations were injected over the ligand and then the dissociation of the complex was measured. The surface was regenerated using glycine pH 1.7. A double referencing method was employed in which data from the ligand bound capture surface (fc 2 and 4) were subtracted from the references surfaces where no ligand was captured (fc 1 and 3 respectively). Blank injections of buffer were run every 3-4 cycles and then subtracted from analyte injection cycles, to correct for small changes in the ligand capture surface. Repeat injections of analyte at the start and end of each analytical run were used to check for sample degradation, or changes in the instrument performance. All analysis was performed at 25° C. and the sample rack was incubated at 10° C. during experimental runs. Each experiment was run at least three times. A 1-to-1 binding model was used to fit the resulting kinetic data.

In assay [4] the target is T4, monomeric His-tagged human FcRn. Put plainly: SPR at pH 6.0, KD against that of Ab-wt; pH 6.0; fold change from Ab-wt.
Experimental: as §1
The target of a further assay is T7, CD32a (R) (UniProt P12318 36-218).
T7 construct: Captured by its His-tag
T7 sequence (looked up): T1 sequence (looked up) with H132R
Put plainly: SPR (Biacore), His-tagged FcγR captured on anti-His chip, antibody as analyte, 25 °C.

The target of a further assay is human C1q (human, UniProt P02745 23-245; P02746 28-253; P02747 29-245). Briefly: ELISA: antibody titrated onto plate-coated human TNFα (1 µg/mL), then human C1q (0.5 µg/mL), detected with rabbit anti-human C1q and HRP anti-rabbit IgG, absorbance 620 nm.
Sequence of human C1q (P02745 23-245 limits assumed, chain 1 of 3): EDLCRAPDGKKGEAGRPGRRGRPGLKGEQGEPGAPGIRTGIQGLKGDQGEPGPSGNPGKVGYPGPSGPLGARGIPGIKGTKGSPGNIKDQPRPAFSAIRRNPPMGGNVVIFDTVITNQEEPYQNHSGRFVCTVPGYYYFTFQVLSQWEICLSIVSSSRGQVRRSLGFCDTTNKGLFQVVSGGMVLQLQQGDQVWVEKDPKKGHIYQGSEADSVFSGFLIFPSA
Sequence of human C1q (P02746 28-253 limits assumed, chain 2 of 3): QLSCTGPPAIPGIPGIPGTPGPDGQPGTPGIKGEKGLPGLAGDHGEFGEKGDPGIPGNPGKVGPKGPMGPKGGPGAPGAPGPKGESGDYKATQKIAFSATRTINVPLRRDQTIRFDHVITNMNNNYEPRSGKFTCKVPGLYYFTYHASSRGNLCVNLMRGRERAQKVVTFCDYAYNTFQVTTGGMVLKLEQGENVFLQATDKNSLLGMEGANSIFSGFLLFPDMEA
Sequence of human C1q (P02747 29-245 limits assumed, chain 3 of 3): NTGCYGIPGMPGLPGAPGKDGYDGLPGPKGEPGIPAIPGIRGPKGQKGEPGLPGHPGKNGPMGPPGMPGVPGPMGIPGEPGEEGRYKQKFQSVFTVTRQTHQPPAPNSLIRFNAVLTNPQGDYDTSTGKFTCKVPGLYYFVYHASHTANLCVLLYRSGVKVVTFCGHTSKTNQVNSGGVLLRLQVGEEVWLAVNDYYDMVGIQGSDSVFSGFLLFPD
Assay [5] deals with T6, human TNFα. Briefly: cell-based or functional assay.
Another assay deals with T8, CD16b (NA2) (UniProt O75015 17-200, limits assumed).
T8 construct: Captured by its His-tag
T8 sequence (O75015 17-200 N65S limits assumed): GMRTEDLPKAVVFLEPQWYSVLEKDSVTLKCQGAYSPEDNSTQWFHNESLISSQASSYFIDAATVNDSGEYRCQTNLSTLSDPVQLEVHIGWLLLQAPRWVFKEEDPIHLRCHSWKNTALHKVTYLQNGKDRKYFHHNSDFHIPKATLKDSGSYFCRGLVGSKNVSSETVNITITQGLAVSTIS
Put plainly: SPR (Biacore), His-tagged FcγR captured on anti-His chip, antibody as analyte, 25 °C.

The target of the next assay is T9, CD16a (F) (UniProt P08637 17-208).
T9 construct: Captured by its His-tag
T9 sequence (P08637 17-208 limits assumed): as the sequence (P08637 17-208 F176V limits assumed) above, with V160F counted along it
Described as above.

The target of assay [6] is T4, monomeric His-tagged human FcRn. Put plainly: SPR at pH 6.0, KD against that of IFX; pH 6.0; fold change from IFX.
Experimental: as §1
Assay [7] addresses T5, CD16a (V). Briefly: SPR (Biacore), His-tagged FcγR captured; the sentence names no reference (Ab-wt by Table 5).
Experimental: Affinity to FcγRs was measured by Biacore. A CM5 chip was prepared using standard amine immobilisation Biacore procedures. Upon insertion of a CM5 chip the system was primed and then normalised with BIA-normalizing solution (Biacore Preventative Maintenance Kit 2). The chip was added to the system with PBS-T running buffer; prior to immobilisation the chip surface was primed with three injections of 50 mM NaOH. FcγRs were immobilised on the chip surface using a His-tag capture system. The anti-His tag chip was prepared according to the Biacore kit instructions, with ˜12000 RU's of the antibody deposited on all 4 flow cells. To remove non-covalently bound material from all the chip flow cells, three 30 second 10 mM glycine pH 1.5 washes were performed. The Fcγ receptors were diluted in PBS-T to a range of 0.5-2 μg/mL, with 2.5-5.0 μL injected onto the chip generating capture levels between 60 and 200 RU's. Antibodies were diluted into PBS-T prior to analysis. Single cycle kinetics were used to estimate the steady state affinity. For each single cycle analysis cycle a titration of 5 antibody concentrations were injected over the FcγR ligand and then the dissociation of the complex was measured. The surface was regenerated using the recommended solution, 10 mM glycine pH 1.5 for the anti-His capture surface. […]

T4 sequence (P55899 24-297 limits assumed, chain 1 of 2): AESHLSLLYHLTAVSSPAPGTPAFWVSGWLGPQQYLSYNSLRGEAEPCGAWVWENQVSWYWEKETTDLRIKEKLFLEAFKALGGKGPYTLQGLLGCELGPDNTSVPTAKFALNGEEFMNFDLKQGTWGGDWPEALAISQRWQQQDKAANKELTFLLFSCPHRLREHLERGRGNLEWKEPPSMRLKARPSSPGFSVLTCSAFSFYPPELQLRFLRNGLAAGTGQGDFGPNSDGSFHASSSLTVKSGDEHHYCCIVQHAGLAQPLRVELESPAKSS
T4 sequence (P61769 21-119 limits assumed, chain 2 of 2): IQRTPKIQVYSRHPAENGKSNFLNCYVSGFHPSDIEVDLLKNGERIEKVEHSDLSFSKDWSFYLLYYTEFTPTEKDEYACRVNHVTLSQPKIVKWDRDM
Experimental for CD16a (F): as §2, §3
Experimental for CD16b (NA2): as §2, §3
Experimental for CD32a (H): as §2
Experimental for CD32a (R): as §2
Experimental for CD32b: as §2
Experimental for CD64: as §2
Experimental for human C1q: ELISA was performed using 96-well MaxiSorp plates where the wells were coated with human TNFα diluted to 1 μg/mL in PBS. After incubation O/N at 4° C., the plates were blocked with PBS containing 4% skimmed milk for 1 h and washed four times with PBS containing 0.05% Tween-20 (PBS-T). Then, titrated amounts of the anti-TNFα IgG antibodies were diluted in PBS-T, added and incubated for 1h at RT. After washing using PBS-T, human C1q (0.5 μg/mL) was diluted in 0.1 M Veronal buffer (0.25 mM CaCl₂ and 0.8 mM MgCl₂ pH 7.2), added to the wells and incubated for 1 h. Subsequently, the wells were washed as above before rabbit anti-human C1q diluted 1:5000 in PBS-T was added to the wells and incubated for 1 h. After washing, an HRP-conjugated anti-rabbit IgG from donkey diluted 1:5000 in PBS-T was added. Subsequently, the wells were washed and 100 μL 3,3′,5,5′-Tetramethylbenzidine substrate was added to each well. The absorbance was measured at 620 nm using a Sunrise spectrophotometer.
The anti-TNFα antibody variants were captured on human TNFα before human C1q was added.

B1: Ab-wt (antibody, human IgG1, kappa)
heavy: not shown
light: DIQMTQSPSSLSASVGDRVTIKCQASQSIFSGLAWYQQKPGKAPKLLIYGASKLASGVPSRFSGSGSGTEFTLTISGLQPADFATYYCQSYYYSSSSSDGSYAFGGGTKLTVLGRTVAAPSVFIFPPSDEQLKSGTASVVCLLNNFYPREAKVQWKVDNALQSGNSQESVTEQDSKDSTYSLSSTLTLSKADYEKHKVYACEVTHQGLSSPVTKSFNRGEC
notes: Human IgG1 anti-TNFα antibody with wild-type Fc; also called parent antibody; wild-type antibody
As usually defined, the Kd is the free concentration of one partner at which half of the binding sites on the other are occupied at equilibrium, for simple one-to-one binding. Lower therefore signals higher affinity. What is called koff is a measure of how fast the partners let go of each other. Lower therefore signals a long-lived complex. By kon is commonly meant the rate constant with which the complex forms. Consider B1, for which the Kd with CD32a (H) amounted to 670 nM; in the assay with CD32b, 3140 nM; with CD64, 2.92 nM; in assay [1], 1000 nM; with CD16a (V) [2], 184 nM; with human TNFα [3], 0.00413 nM. Also, the koff with human TNFα [3] was found to be 3.45e-05 s⁻¹. The molecule further had a kon with human TNFα [3] of 8.37e+06 M⁻¹ s⁻¹.

B2: Ab-AA (antibody, human IgG1, kappa)
heavy: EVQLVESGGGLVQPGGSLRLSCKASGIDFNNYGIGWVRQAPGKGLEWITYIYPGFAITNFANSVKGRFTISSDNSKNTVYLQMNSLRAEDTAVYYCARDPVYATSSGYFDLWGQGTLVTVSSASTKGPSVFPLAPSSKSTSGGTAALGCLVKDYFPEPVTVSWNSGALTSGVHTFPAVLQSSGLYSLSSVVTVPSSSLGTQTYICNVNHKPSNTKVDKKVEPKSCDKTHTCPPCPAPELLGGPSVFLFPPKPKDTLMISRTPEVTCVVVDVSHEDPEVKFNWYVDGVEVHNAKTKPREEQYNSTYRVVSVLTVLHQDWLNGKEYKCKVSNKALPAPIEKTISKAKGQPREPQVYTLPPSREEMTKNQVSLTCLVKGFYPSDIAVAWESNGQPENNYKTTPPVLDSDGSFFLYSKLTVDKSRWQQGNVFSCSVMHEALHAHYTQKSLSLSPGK
light: B1 light
notes: Human IgG1; also called E380A/N434A variant
One may read the EC50 (read off the curve) as the concentration at which the effect is half-maximal. Higher therefore signals a less potent agent. Take B2: the “Fold change from wt” value in assay [4] came to 8.4 fold. Further, the Kd with CD32a (H) was 1410 nM; with CD32a (R), 2050 nM; with CD32b, 2170 nM; in the assay with CD64 it was 3.59 nM; in assay [1] it was 119 nM; in the assay with CD16a (V) [2], 707 nM. Moreover, the Kd came to 2240 nM with CD16b (NA2), 1760 nM with CD16a (F) and 0.00247 nM with human TNFα [3]. Also, in the assay with human C1q, the half-maximal effective concentration (EC50 (read off the curve)) was roughly 0.6 µg/mL. Also, the “IC50 (read off the curve)” value with human TNFα [5] is roughly 0.008 µg/mL. Also, the “Fold change from IFX” value in assay [6] was determined as 3.6 fold. In the assay with human TNFα [3], the koff stood at 2.06e-05 s⁻¹. In the assay with human TNFα [3], this molecule came in with a kon of 8.54e+06 M⁻¹ s⁻¹.

B3: Ab-AA-2FF (antibody, human IgG1, kappa)
heavy: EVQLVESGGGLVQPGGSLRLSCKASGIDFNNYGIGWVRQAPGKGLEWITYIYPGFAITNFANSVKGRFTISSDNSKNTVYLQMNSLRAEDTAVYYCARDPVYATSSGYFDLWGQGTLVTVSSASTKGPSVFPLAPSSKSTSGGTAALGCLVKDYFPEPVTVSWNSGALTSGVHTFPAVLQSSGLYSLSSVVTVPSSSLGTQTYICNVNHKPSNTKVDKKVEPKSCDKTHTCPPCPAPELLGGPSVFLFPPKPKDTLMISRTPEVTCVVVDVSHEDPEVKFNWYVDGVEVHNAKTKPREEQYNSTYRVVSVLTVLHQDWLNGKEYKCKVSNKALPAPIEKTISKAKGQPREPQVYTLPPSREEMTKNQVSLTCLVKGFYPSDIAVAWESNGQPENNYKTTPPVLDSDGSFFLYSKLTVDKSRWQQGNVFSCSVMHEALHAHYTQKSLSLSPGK
light: B1 light
modifications: N-glycans at N297 (EU) with greatly reduced fucose (<10% fucosylated); produced in the presence of 2-deoxy-2-fluoro-fucose (2FF)
notes: human IgG1; also called non-fucosylated variant of Ab-AA
For B3, in assay [4], the “Fold change from wt” value was found to be 9.7 fold. Further, the Kd in the assay with CD32a (H) is 1170 nM; with CD32a (R), 1560 nM; in the assay with CD32b, 1370 nM; with CD64, 3.17 nM; in assay [1], 103 nM; in the assay with CD16a (V) [2], 39.4 nM. In addition, the Kd came out at 470 nM with CD16b (NA2), 170 nM with CD16a (F) and 0.00773 nM with human TNFα [3]. In the assay with human C1q, the “EC50 (read off the curve)” value was roughly 0.7 µg/mL. Besides, the “IC50 (read off the curve)” value with human TNFα [5] was roughly 0.008 µg/mL. Further, the “Fold change from IFX” value in assay [6] came to 4.1 fold. Moreover, the “fold increase in affinity” value with CD16a (V) [7] was determined as 4.7 fold. The molecule also had a koff with human TNFα [3] of 5.84e-05 s⁻¹. Further, the kon with human TNFα [3] worked out at 7.55e+06 M⁻¹ s⁻¹.

B4: infliximab (antibody)
chain 1: not shown
chain 2: DILLTQSPAILSVSPGERVSFSCRASQFVGSSIHWYQQRTNGSPRLLIKYASESMSGIPSRFSGSGSGTDFTLSINTVESEDIADYYCQQSHSWPFTFGSGTNLEVKRTVAAPSVFIFPPSDEQLKSGTASVVCLLNNFYPREAKVQWKVDNALQSGNSQESVTEQDSKDSTYSLSSTLTLSKADYEKHKVYACEVTHQGLSSPVTKSFNRGEC
B4: the “EC50 (read off the curve)” value with human C1q was roughly 0.6 µg/mL.
